Assay [1] deals with T1, prostate specific membrane antigen (PSMA) on prostate cancer cells (human, UniProt Q04609 1-750).
T1 construct: whole, on cells; Printed expression order: MDA PCa 2b > LNCaP > 22Rv1; also called glutamate carboxypeptidase II (GCPII); FOLH1
The assay can be described thus: flow cytometry on MDA PCa 2b cells (PSMA-expressing), FITC anti-human IgG detection.

Assay [2] has as its target T1, prostate specific membrane antigen …. The assay can be described thus: cell-based or functional assay.
Assay [3] has the same target. The assay can be described thus: flow cytometry on 22Rv1 cells, FITC anti-human IgG secondary. Here is the method: (§1) In this experiment, fluorescence signals of antibodies on the cell surface were detected, and the binding of the antibodies was evaluated according to the intensity of the fluorescence signals.
(§2) The cells were incubated with an FITC-labeled goat anti-human IgG (H+L) secondary antibody (Jackson Immuno Research, 109-095-003) at 4° C. for 30 min, and then excess antibodies were washed off. The fluorescence signals on the cell surface were read using BD CantoII. The results are shown in Table 2, FIG. 1A, FIG. 1B, FIG. 1C, FIG. 1D, and FIG. 1E.

The target is the same in assay [4]. The assay can be described thus: flow cytometry on LNCaP cells, FITC anti-human IgG secondary. Here is the method:
as §1, §2

For assay [5] the target is unchanged. As to the kind of experiment: flow cytometry on MDA PCa 2b cells, FITC anti-human IgG secondary. Here is the method: as §1, §2

T1 sequence (Q04609 whole entry): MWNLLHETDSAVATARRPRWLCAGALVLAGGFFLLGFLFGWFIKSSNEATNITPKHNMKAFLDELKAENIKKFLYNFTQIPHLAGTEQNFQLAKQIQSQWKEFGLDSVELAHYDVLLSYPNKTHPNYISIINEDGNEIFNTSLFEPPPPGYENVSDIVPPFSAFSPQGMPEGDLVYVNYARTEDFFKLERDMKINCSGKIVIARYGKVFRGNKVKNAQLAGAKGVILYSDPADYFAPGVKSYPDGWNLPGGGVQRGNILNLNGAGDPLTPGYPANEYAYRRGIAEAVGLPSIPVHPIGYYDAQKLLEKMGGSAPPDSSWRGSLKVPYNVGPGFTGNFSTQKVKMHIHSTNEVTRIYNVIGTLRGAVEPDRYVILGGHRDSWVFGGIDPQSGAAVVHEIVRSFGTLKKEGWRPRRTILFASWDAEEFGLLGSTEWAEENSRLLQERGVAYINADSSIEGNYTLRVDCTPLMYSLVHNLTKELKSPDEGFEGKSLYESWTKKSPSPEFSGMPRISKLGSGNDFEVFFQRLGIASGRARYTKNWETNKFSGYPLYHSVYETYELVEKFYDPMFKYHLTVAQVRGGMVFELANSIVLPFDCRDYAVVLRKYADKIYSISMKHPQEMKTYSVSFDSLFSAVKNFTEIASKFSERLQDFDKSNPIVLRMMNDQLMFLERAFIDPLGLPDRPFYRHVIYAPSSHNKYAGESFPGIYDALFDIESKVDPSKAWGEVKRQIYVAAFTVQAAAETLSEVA

B1: Lmab-9-A (control antibody-drug conjugate of labeuzumab with compound 9-A, n=7.07) (antibody, human IgG1, kappa, V domains shown)
VH: EVQLVESGGGVVQPGRSLRLSCSASGFDFTTYWMSWVRQAPGKGLEWIGEIHPDSSTINYAPSLKDRFTISRDNAKNTLFLQMDSLRPEDTGVYFCASLYFGFPWFAYWGQGTPVTVSS
VL: DIQLTQSPSSLSASVGDRVTITCKASQDVGTSVAWYQQKPGKAPKLLIYWTSTRHTGVPSRFSGSGSGTDFTFTISSLQPEDIATYYCQQYSLYRSFGQGTKVEIKR
modifications: drug-linker compound 9-A coupled to cysteine after TCEP reduction; positions not given; mean n=7.07 per antibody (UV-Vis)
notes: also called control ADC Lmab-9-A; ADCLmab-9-A
For B1, in assay [1], the binding result is reported as “no binding”.

B2: Antibody PM (intact full-length anti-PSMA antibody PM, variable regions of AB-PG1-XG1-006) (antibody, V domains shown)
VH: QVQLVESGGGVVQPGRSLRLSCAASGFAFSRYGMHWVRQAPGKGLEWVAVIWYDGSNKYYADSVKGRFTISRDNSKNTQYLQMNSLRAEDTAVYYCARGGDFLYYYYYGMDVWGQGTTVTVSS
VL: DIQMTQSPSSLSASVGDRVTITCRASQGISNYLAWYQQKTGKVPKFLIYEASTLQSGVPSRFSGGGSGTDFTLTISSLQPEDVATYYCQNYNSAPFTFGPGTKVDIKR
notes: Full-length IgG1/kappa (VH-CH1-Fc/VK-CL), expressed in HEK293E cells; also called AB-PG1-XG1-006 (variable regions)
Take B2: the “Endocytic activity of different cells to the antibodies (IC50, nM); DT3C-mediated cell killing, 22RV1 cells” value in assay [2] was 0.0856 nM. Also, the EC50 worked out at 0.676 nM in assay [3], 1.42 nM in assay [4] and 1.08 nM in assay [5].

B3: ADC-10 (exemplary product of the conjugate of formula PM-VcMMAE, n=3.92) (antibody, V domains shown)
VH: B2 VH
VL: B2 VL
modifications: VcMMAE coupled via a mercapto group on cysteine after TCEP reduction; positions not given; mean n=3.92 per antibody (CE-SDS); VcMMAE (CAS 646502-53-6) coupled via a mercapto group on cysteine after TCEP reduction; positions not given; mean n=3.92 per antibody (CE-SDS)
notes: also called positive ADC-10
B3: the EC50 came out at 0.689 nM in assay [3], 1.58 nM in assay [4] and 0.954 nM in assay [5].

B4: ADC-2 (exemplary product of the conjugate of formula PM-9-A, n=6.63) (antibody, V domains shown)
VH: B2 VH
VL: B2 VL
modifications: drug-linker compound 9-A coupled via a mercapto group on cysteine after TCEP reduction; positions not given; mean n=6.63 per antibody (UV-Vis); drug-linker compound 9-A (exatecan analog with linking unit) coupled via a mercapto group on cysteine after TCEP reduction; positions not given; mean n=6.63 per antibody (UV-Vis)
notes: also called PSMA ADC
As to B4, the EC50 in assay [3] was 0.571 nM; in assay [4], 0.938 nM; in assay [5], 0.718 nM.

The values are drawn from patent publication US20230140397A1 (JIANGSU HENGRUI PHARMACEUTICALS, published 2023).
